Our source for the EC50 and Max effect/effect 1 µM values is US20250171562A1.

To fix the notation:
B1: D2A1(G4S)4 (bispecific antibody)
chain: DVQLQESGGGLVEAGGSLRLSCVASGRTFSGWSMGWFRQAPGKEREFVAAISWVGSWIGGTVYSNSVKGRFTISRDNARTTVYLQMNSLKPEDTAVYFCAAANSETPRIFASEYDYWGQGTQVTVSGGGGSGGGGSGGGGSGGGGSEVQLLESGGGLVQPGGSLRLSCAASGFTFGNYDMAWVRQAPGKRPEWVSSIDTGGDITHYADSVKGRFTISRDNAKNTLYLQMNSLRPEDTAVYWCATDEEYALGPNEFDYYGQGTLVTVS
B2: sdAb B1 (VHH)
VHH: QVQLQESGGGLVQTGGSLRLSCAVHGRTFSNTGMGWFRQAPGNERQFVAIISPSGTSTYYADSVKGRFTISRDPAKNTVYLQMNSLKMDDTAVYYCAASYGSNWSTLRHQRRNEYDAWGQGTQVAVS
B3: A1A1(G4S)4 (VHH)
chain: EVQLLESGGGLVQPGGSLRLSCAASGFTFGNYDMAWVRQAPGKRPEWVSSIDTGGDITHYADSVKGRFTISRDNAKNTLYLQMNSLRPEDTAVYWCATDEEYALGPNEFDYYGQGTLVTVSGGGGSGGGGSGGGGSGGGGSEVQLLESGGGLVQPGGSLRLSCAASGFTFGNYDMAWVRQAPGKRPEWVSSIDTGGDITHYADSVKGRFTISRDNAKNTLYLQMNSLRPEDTAVYWCATDEEYALGPNEFDYYGQGTLVTVS
B4: sdAb D1 (VHH)
VHH: DVQLQESGGGLVQAGGSLRLSCAASGLTFSRCDMGWFRQAPGKEREFVARISANGASTHYADFVKGRFTISRDNAKNTVYLQMNYLKPEDTAVYICAAARVPVTWQLYDYWGQGTQVTVS
B5: A1B1(G4S)4 (bispecific antibody)
chain: EVQLLESGGGLVQPGGSLRLSCAASGFTFGNYDMAWVRQAPGKRPEWVSSIDTGGDITHYADSVKGRFTISRDNAKNTLYLQMNSLRPEDTAVYWCATDEEYALGPNEFDYYGQGTLVTVSGGGGSGGGGSGGGGSGGGGSQVQLQESGGGLVQTGGSLRLSCAVHGRTFSNTGMGWFRQAPGNERQFVAIISPSGTSTYYADSVKGRFTISRDPAKNTVYLQMNSLKMDDTAVYYCAASYGSNWSTLRHQRRNEYDAWGQGTQVAVS
B6: A1D2(G4S)4 (bispecific antibody)
chain: EVQLLESGGGLVQPGGSLRLSCAASGFTFGNYDMAWVRQAPGKRPEWVSSIDTGGDITHYADSVKGRFTISRDNAKNTLYLQMNSLRPEDTAVYWCATDEEYALGPNEFDYYGQGTLVTVSGGGGSGGGGSGGGGSGGGGSDVQLQESGGGLVEAGGSLRLSCVASGRTFSGWSMGWFRQAPGKEREFVAAISWVGSWIGGTVYSNSVKGRFTISRDNARTTVYLQMNSLKPEDTAVYFCAAANSETPRIFASEYDYWGQGTQVTVS
B7: sdAb F3 (VHH)
VHH: DVQLQESGGGLVQAGGSLKLSCAASRGSLSRWDVAWFRQAPGKERSFVTRISWSGTTSYYADAVKGRFAISRDNAKNTVYLQMNSLKPEDTAVYYCAVALYGNRGYYDVNAHSYWGQGTQVTVS
B8: sdAb B3 (VHH)
VHH: DVQLQESGGGLVQAGGSLRLSCAASGFIFRLAGMSWVRQAPGKGFEWVSGITMDGSTTNYADSVKGRFTISRDNSKNRLYLQMNSLKPEDTAVYYCARGAKGGYNDPRGQGTQVTVS
B9: A1B2(G4S)4 (bispecific antibody)
chain: EVQLLESGGGLVQPGGSLRLSCAASGFTFGNYDMAWVRQAPGKRPEWVSSIDTGGDITHYADSVKGRFTISRDNAKNTLYLQMNSLRPEDTAVYWCATDEEYALGPNEFDYYGQGTLVTVSGGGGSGGGGSGGGGSGGGGSQVQLVESGGGLVQAGGSLRLSCAVFGSTFSNNVADWYRQAPGKQRELVARISASGATREYGDSVKGRFTISRDDAKNTMYLQMNNLKPEDTAVYRCHKIEWEDLSRKDYWGQGTQVTVS
B10: sdAb E1 (VHH)
VHH: DVQLQESGGGLVQAGGSLRLSCLASGRTFTTTSGYNMGWFRQAPGKEREFVAGIKWVSGSNRAYAESVKGRFTISRDNAKNTVYLQMNSLKPEDTAVYYCAAATGQSYVPIREYEYVYWGQGTQVTVS
B11: B1A1(G4S)4 (bispecific antibody)
chain: QVQLQESGGGLVQTGGSLRLSCAVHGRTFSNTGMGWFRQAPGNERQFVAIISPSGTSTYYADSVKGRFTISRDPAKNTVYLQMNSLKMDDTAVYYCAASYGSNWSTLRHQRRNEYDAWGQGTQVAVSGGGGSGGGGSGGGGSGGGGSEVQLLESGGGLVQPGGSLRLSCAASGFTFGNYDMAWVRQAPGKRPEWVSSIDTGGDITHYADSVKGRFTISRDNAKNTLYLQMNSLRPEDTAVYWCATDEEYALGPNEFDYYGQGTLVTVS
B12: B2A1(G4S)4 (bispecific antibody)
chain: QVQLVESGGGLVQAGGSLRLSCAVFGSTFSNNVADWYRQAPGKQRELVARISASGATREYGDSVKGRFTISRDDAKNTMYLQMNNLKPEDTAVYRCHKIEWEDLSRKDYWGQGTQVTVSGGGGSGGGGSGGGGSGGGGSEVQLLESGGGLVQPGGSLRLSCAASGFTFGNYDMAWVRQAPGKRPEWVSSIDTGGDITHYADSVKGRFTISRDNAKNTLYLQMNSLRPEDTAVYWCATDEEYALGPNEFDYYGQGTLVTVS
B13: sdAb D2 (VHH)
VHH: DVQLQESGGGLVEAGGSLRLSCVASGRTFSGWSMGWFRQAPGKEREFVAAISWVGSWIGGTVYSNSVKGRFTISRDNARTTVYLQMNSLKPEDTAVYFCAAANSETPRIFASEYDYWGQGTQVTVS
B14: B3A1(G4S)4 (bispecific antibody)
chain: DVQLQESGGGLVQAGGSLRLSCAASGFIFRLAGMSWVRQAPGKGFEWVSGITMDGSTTNYADSVKGRFTISRDNSKNRLYLQMNSLKPEDTAVYYCARGAKGGYNDPRGQGTQVTVSGGGGSGGGGSGGGGSGGGGSEVQLLESGGGLVQPGGSLRLSCAASGFTFGNYDMAWVRQAPGKRPEWVSSIDTGGDITHYADSVKGRFTISRDNAKNTLYLQMNSLRPEDTAVYWCATDEEYALGPNEFDYYGQGTLVTVS
B15: sdAb B2 (VHH)
VHH: QVQLVESGGGLVQAGGSLRLSCAVFGSTFSNNVADWYRQAPGKQRELVARISASGATREYGDSVKGRFTISRDDAKNTMYLQMNNLKPEDTAVYRCHKIEWEDLSRKDYWGQGTQVTVS
B16: A1B3(G4S)4 (bispecific antibody)
chain: EVQLLESGGGLVQPGGSLRLSCAASGFTFGNYDMAWVRQAPGKRPEWVSSIDTGGDITHYADSVKGRFTISRDNAKNTLYLQMNSLRPEDTAVYWCATDEEYALGPNEFDYYGQGTLVTVSGGGGSGGGGSGGGGSGGGGSDVQLQESGGGLVQAGGSLRLSCAASGFIFRLAGMSWVRQAPGKGFEWVSGITMDGSTTNYADSVKGRFTISRDNSKNRLYLQMNSLKPEDTAVYYCARGAKGGYNDPRGQGTQVTVS

For this test, the target named is mixture of three Der p 2 specific recombinant human IgE clones H10, H12, P4E (human) (UniProt P01854). In words: RBL-SX38 IgE displacement, FACS.
Chain of mixture of three Der p 2 specific recombinant human IgE clones H10, H12, P4E (human) (P01854 other isoform, or with tags, fused parts or gaps): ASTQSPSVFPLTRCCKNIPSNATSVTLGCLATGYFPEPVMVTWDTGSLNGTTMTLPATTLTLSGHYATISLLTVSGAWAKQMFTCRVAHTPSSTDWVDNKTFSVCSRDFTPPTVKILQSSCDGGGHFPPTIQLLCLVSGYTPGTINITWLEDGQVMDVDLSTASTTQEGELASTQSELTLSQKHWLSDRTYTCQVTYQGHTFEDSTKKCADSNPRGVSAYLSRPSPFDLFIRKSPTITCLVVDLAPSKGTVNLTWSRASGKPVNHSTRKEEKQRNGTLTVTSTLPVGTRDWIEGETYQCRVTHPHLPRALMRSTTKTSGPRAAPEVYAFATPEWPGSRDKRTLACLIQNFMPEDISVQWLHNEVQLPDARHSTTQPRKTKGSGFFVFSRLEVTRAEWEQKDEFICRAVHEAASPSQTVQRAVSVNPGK
B1: the EC50 (in general, the concentration needed to bring the measured effect to its halfway point) came to 78.7 nM and the Max effect/effect 1 µM turned out to be 83%.

As for B2, the Max effect/effect 1 µM was determined as 54%.

In the case of B3, the EC50 amounted to 402 nM and the Max effect/effect 1 µM stood at 45%.

On to B4, for which the Max effect/effect 1 µM was determined as 12%.

For B5, the EC50 is 1.4 nM and the Max effect/effect 1 µM amounted to 100%.

Turning to B6, the EC50 came to 4.3 nM and the Max effect/effect 1 µM came to 98%.

As for B7, the Max effect/effect 1 µM was 5.6%.

For B8, the Max effect/effect 1 µM is 7%.

As for B9, the EC50 was found to be 0.8 nM and the Max effect/effect 1 µM is 100%.

For B10, the Max effect/effect 1 µM turned out to be 0%.

As to B11, the half-maximal effective concentration (EC50) is 1.4 nM and the Max effect/effect 1 µM came out at 100%.

In the case of B12, the EC50 came to 5.8 nM and the Max effect/effect 1 µM was 92%.

Turning to B13, the Max effect/effect 1 µM amounted to 22%.

For the molecule B14, the concentration for a half-maximal effect (EC50) is 2 nM and the Max effect/effect 1 µM turned out to be 100%.

For the molecule B15, the Max effect/effect 1 µM was 23%.

For B16, the EC50 was found to be 0.4 nM and the Max effect/effect 1 µM stood at 99%.
